Earlier results, collected in publication PMC5689411.

Target: RNR beta2 (Escherichia coli) (UniProt P69924)
Experiment: competitive inhibition assay

UniProt P69924, sequence (P69924 2-376): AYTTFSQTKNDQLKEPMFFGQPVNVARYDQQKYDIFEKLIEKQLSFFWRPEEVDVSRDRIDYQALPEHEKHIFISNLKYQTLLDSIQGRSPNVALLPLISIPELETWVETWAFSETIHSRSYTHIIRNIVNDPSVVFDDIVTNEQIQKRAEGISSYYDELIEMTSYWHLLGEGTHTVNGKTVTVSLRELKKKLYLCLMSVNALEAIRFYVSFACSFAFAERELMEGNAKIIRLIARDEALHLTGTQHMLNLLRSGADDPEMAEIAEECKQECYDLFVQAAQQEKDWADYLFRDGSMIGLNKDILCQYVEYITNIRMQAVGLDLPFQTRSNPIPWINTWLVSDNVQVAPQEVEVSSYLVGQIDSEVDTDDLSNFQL

## RNR alpha2 (from UniProt P00452)
  Kd: 0.18 µM
